Measurements as given in patent publication US20230365674 (published 2023).

Assays:
Test in all cases: ELISA
human NPR3 + ANP = target: T1, human NPR3 + ANP (human, UniProt P17342)
T1 chain 1: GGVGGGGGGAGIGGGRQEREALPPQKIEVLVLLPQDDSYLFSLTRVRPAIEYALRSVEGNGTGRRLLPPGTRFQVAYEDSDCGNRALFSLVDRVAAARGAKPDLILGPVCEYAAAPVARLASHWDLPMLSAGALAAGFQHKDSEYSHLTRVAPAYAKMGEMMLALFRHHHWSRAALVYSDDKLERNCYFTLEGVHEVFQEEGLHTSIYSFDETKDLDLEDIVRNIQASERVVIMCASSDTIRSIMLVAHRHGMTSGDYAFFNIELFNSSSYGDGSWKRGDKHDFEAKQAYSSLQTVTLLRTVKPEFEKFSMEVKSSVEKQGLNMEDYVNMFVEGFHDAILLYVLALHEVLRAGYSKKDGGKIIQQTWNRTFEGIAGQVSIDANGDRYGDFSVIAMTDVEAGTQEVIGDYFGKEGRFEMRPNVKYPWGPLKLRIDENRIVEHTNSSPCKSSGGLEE
T1 chain 2: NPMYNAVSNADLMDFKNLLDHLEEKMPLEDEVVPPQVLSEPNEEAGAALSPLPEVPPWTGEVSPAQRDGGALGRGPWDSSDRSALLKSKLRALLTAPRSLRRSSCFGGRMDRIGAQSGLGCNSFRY

human NPR1 W74R + ANP = target: T2, human NPR1 W74R + ANP (human)
T2 chain 1: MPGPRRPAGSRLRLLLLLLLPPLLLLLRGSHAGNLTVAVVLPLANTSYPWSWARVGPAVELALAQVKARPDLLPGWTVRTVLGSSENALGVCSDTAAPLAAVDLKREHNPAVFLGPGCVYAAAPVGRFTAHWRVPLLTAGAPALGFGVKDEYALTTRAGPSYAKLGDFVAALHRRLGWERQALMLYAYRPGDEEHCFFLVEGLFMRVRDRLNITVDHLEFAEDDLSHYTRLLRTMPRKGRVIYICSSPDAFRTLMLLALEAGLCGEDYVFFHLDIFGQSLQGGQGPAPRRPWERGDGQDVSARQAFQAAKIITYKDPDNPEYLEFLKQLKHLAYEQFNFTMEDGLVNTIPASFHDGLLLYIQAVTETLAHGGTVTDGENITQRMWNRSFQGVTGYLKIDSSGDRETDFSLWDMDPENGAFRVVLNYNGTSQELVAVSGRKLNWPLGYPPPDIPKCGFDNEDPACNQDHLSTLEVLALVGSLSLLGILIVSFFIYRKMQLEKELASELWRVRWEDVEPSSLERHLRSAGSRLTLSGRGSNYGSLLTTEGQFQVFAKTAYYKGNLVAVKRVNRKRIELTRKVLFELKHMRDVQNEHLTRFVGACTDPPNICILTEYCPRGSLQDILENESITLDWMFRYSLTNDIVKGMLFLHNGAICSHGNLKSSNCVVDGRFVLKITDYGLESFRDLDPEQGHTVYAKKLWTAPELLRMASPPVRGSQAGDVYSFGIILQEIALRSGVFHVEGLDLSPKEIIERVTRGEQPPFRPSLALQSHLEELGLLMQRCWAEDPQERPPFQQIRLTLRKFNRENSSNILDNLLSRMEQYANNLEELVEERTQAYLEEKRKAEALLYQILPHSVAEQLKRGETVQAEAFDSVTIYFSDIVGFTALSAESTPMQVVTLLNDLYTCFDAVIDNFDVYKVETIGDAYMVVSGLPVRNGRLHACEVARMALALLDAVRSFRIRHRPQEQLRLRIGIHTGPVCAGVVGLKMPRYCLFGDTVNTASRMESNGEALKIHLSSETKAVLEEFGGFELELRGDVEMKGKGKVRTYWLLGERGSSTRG
T2 chain 2: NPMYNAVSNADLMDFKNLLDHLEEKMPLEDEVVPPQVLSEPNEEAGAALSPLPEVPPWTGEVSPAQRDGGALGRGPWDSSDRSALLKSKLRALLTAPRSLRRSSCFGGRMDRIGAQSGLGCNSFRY

human NPR1 W74R = target: T3, human NPR1 W74R (human)
T3 chain: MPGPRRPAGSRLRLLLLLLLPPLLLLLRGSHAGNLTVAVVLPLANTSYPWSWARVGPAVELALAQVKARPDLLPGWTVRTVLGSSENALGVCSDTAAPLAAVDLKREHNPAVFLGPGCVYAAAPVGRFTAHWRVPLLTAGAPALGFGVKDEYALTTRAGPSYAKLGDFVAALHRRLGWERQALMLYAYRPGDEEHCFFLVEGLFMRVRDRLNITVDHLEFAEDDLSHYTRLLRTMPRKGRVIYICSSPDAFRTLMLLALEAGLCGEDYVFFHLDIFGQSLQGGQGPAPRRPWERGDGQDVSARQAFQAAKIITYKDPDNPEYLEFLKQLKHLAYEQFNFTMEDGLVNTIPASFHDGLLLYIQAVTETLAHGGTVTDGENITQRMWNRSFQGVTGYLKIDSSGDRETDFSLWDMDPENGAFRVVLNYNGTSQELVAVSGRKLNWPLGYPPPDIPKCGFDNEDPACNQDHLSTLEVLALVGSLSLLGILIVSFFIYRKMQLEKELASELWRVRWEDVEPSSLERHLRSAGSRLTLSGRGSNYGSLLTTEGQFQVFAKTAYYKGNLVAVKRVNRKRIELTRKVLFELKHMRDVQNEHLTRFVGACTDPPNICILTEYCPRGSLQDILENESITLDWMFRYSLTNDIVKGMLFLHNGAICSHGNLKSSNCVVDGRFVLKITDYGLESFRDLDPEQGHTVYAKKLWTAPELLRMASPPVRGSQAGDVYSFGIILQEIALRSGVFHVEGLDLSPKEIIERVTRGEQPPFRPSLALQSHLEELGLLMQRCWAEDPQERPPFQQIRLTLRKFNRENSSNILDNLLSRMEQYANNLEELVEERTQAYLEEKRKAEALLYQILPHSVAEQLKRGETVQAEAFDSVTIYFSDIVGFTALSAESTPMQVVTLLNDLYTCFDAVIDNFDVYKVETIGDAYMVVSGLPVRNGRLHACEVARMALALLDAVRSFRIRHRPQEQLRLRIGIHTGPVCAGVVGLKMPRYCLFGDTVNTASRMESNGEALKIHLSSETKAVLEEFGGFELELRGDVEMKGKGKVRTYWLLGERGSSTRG

human NPR1 = target: T4, human NPR1 (human)
T4 chain: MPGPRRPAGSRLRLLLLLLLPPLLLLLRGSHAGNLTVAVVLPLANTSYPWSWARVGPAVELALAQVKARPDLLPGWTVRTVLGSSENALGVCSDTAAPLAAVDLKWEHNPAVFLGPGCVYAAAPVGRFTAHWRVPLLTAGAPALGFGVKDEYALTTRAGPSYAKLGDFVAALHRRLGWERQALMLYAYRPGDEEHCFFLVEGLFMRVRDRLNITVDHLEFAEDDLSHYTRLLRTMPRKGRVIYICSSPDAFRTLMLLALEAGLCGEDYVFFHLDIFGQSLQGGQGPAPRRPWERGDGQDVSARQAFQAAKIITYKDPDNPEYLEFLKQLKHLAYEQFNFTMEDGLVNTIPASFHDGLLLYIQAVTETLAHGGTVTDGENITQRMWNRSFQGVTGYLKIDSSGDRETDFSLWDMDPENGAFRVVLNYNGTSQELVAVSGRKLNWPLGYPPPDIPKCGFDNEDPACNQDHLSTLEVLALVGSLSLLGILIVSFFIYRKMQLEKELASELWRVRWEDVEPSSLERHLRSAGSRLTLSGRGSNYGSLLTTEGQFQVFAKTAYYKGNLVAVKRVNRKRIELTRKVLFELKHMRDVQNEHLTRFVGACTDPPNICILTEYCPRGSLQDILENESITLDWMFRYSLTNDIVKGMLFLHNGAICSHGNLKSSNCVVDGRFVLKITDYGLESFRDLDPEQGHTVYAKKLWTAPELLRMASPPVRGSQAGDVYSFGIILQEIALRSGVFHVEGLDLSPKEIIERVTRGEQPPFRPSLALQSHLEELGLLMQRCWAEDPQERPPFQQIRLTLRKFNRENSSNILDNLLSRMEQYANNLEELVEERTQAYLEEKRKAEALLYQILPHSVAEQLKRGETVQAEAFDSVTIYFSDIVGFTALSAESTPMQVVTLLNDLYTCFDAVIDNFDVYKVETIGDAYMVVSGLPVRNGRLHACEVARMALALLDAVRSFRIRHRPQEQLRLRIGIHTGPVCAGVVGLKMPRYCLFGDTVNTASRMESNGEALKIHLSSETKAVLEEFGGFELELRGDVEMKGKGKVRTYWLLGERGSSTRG

rat NPR1-ANP complex = target: T5, rat NPR1-ANP complex (rat)
T5 chain 1: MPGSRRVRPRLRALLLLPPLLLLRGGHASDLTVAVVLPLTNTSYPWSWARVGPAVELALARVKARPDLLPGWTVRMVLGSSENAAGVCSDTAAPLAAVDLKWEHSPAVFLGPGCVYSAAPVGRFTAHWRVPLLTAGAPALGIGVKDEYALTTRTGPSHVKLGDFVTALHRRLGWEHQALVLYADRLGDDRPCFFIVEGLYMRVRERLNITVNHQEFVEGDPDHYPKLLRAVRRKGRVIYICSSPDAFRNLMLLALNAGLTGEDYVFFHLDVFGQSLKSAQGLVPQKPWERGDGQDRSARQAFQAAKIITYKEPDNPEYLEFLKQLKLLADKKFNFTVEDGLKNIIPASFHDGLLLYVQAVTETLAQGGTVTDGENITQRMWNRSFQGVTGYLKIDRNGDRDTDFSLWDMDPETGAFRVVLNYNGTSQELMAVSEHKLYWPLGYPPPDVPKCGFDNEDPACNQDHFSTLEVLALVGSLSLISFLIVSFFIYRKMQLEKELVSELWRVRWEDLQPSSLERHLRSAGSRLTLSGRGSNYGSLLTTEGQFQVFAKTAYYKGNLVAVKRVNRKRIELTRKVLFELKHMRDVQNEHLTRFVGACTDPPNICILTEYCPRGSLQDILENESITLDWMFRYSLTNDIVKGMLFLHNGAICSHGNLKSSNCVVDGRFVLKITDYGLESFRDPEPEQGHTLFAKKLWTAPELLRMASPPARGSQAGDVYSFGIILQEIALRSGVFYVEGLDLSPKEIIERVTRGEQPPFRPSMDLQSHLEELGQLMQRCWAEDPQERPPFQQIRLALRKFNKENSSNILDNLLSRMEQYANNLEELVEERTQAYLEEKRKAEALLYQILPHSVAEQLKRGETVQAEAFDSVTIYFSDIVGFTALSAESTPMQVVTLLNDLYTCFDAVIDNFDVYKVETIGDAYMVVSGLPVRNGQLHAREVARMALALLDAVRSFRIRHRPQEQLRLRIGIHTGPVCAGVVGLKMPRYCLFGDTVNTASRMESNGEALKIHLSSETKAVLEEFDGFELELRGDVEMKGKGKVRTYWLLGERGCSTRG
T5 chain 2: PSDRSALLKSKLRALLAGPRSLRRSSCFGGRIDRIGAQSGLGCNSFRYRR

rat NPR1 = target: T6, rat NPR1 (rat)
T6 chain: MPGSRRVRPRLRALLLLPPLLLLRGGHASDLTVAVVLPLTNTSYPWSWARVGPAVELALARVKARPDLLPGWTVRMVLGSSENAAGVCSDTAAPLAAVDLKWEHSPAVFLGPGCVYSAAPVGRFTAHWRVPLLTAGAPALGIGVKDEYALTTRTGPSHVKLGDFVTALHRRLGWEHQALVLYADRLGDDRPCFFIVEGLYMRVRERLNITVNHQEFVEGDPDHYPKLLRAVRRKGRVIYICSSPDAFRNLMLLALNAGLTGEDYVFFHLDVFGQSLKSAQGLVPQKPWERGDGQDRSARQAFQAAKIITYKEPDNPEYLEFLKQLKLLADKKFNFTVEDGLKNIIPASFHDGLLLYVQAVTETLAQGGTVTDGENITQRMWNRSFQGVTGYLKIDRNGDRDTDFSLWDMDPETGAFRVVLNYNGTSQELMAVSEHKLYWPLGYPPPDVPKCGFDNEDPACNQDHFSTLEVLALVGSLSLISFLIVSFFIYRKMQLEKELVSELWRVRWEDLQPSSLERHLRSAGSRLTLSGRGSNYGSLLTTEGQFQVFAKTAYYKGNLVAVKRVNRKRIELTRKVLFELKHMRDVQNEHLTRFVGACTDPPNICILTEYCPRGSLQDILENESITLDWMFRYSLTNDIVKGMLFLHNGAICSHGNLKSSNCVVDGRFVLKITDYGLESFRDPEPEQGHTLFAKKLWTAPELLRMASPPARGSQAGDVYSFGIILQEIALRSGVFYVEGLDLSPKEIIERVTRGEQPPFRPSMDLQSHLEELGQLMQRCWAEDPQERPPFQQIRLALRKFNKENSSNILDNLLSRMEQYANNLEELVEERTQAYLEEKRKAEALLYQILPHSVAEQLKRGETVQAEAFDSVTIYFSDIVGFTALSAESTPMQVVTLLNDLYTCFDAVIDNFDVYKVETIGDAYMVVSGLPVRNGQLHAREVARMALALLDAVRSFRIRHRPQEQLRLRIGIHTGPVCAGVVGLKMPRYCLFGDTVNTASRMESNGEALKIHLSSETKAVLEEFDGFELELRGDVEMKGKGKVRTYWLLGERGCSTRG

human NPR3 = target: T7, human NPR3 (human, UniProt P17342)
T7 chain: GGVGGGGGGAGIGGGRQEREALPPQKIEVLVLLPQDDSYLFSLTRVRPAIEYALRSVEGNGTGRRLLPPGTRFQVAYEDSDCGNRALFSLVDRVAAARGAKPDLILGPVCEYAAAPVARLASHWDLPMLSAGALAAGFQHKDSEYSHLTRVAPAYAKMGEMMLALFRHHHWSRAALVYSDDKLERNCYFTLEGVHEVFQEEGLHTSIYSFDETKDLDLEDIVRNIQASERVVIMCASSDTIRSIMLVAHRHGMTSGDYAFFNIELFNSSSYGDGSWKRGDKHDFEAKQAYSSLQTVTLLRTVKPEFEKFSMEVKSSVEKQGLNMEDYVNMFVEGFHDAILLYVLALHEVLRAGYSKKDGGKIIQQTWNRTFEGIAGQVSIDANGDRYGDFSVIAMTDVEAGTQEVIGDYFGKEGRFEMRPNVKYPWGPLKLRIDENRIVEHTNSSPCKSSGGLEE

Measured: binding result

B1: WW01 IgG (antibody, V domains shown)
VH: QVQLLESGGGLVQPGGSLRLSCAASGFTFNTHYIHWVRQAPGKGLEWVSSISGSGSNTYYADSVKGRFTISRDNSKNTLYLQMNSLRAEDTAVYYCARERGYVYYHMFDPWGQGTLVTVSS
VL: DIVLTQSPATLSLSPGERATLSCRASQSITRNYLAWYQQKPGQAPRLLIYGASSRATGIPARFSGSGSGTDFTLTISSLEPEDFAVYYCQQHSMYPRTFGQGTKVEIK
no binding: human NPR3 + ANP | human NPR1 W74R + ANP | human NPR1 W74R | human NPR1 | rat NPR1-ANP complex | rat NPR1 | human NPR3
